Laboratory results as given in the supplement of paper PMC6755084.

B1: F1*; the commonest letter at each place (parent)
chain: GAGACCGCAACTGAAAAGTTGTTATCACTTGTCGTAAGACACTTTGGATGGGTTGAAGTTCTGCACGTAGAAGCAAAAGGC

Variants of: B1
Test: fraction ligated after 30 min (ligated reads / total reads); higher = more ligase activity
Details: with F1*sub RNA substrate (template-directed ligation), 42 °C
Description: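 Chip-synthesised pool of F1* ligase ribozyme variants (all single and double substitutions, single, double and triple deletions in the catalytic core and GAA bulge, plus designed variants) was transcribed with T7 and reacted as a pool with excess substrate F1*sub for 30 min at 42 C in 50 mM EPPS pH 8.5, 25 mM MgCl2. Ligated and unligated bands were separated by PAGE, barcoded by RT and deep sequenced; fraction ligated = ligated reads / total reads per variant, relative activity = FL / FL of wild type (0.826). Sequences are the DNA template of the ribozyme.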
GAGACCGCAACTGAAAAGTTGTTATCTCTGGTCGTAAGACACTTTGGATGGGTTGAAGTTCTGCACGTAGAAGCAAAAGGC showed a fraction ligated of 0.84.
GAGACCGCAACTGAAAAGTTGTTATCTCTAGTCGTAAGACACTTTGGATGGGTTGAAGTTCTGCACGTAGAAGCAAAAGGC showed a fraction ligated of 0.775.
Variant GAGACCGCAACTGAAAAGTTGTTATCTCTCGTCGTAAGACACTTTGGATGGGTTGAAGTTCTGCACGTAGAAGCAAAAGGC has a fraction ligated of 0.804.
With GAGACCGCAACTGAAAAGTTGTTATCTCTTGTCGTAAGACACTTTTGATGGGTTGAAGTTCTGCACGTAGAAGCAAAAGGC the fraction ligated was 0.757.
Variant GAGACCGCAACTGAAAAGTTGTTATCTCTTGTCGTAAGACACTTTCGATGGGTTGAAGTTCTGCACGTAGAAGCAAAAGGC has a fraction ligated of 0.796.
With GAGACCGCAACTGAAAAGTTGTTATCTCTTGTCGTAAGACACTTTAGATGGGTTGAAGTTCTGCACGTAGAAGCAAAAGGC the fraction ligated was 0.817.
With GAGACCGCAACTGAAAAGTTGTTATCTCTTGTCGTAAGAAACTTTGGATGGGTTGAAGTTCTGCACGTAGAAGCAAAAGGC the fraction ligated was 0.856.
Variant GAGACCGCAACTGAAAAGTTGTTATCTCTTGTCGTAAGAGACTTTGGATGGGTTGAAGTTCTGCACGTAGAAGCAAAAGGC has a fraction ligated of 0.807.
Variant GAGACCGCAACTGAAAAGTTGTTATCTCTTGTCGTAAGATACTTTGGATGGGTTGAAGTTCTGCACGTAGAAGCAAAAGGC has a fraction ligated of 0.847.
For GAGACCGCAACTGAAAAGTTGTTATCTTTTGTCGTAAGACACTTTGGATGGGTTGAAGTTCTGCACGTAGAAGCAAAAGGC, the fraction ligated was 0.798.
GAGACCGCAACTGAAAAGTTGTTATCTGTTGTCGTAAGACACTTTGGATGGGTTGAAGTTCTGCACGTAGAAGCAAAAGGC showed a fraction ligated of 0.802.
For GAGACCGCAACTGAAAAGTTGTTATCTATTGTCGTAAGACACTTTGGATGGGTTGAAGTTCTGCACGTAGAAGCAAAAGGC, the fraction ligated was 0.829.
Variant GAGACCGCAACTGAAAAGTTGTTATCTCTTGTCGTAAGACACTTTGAATGGGTTGAAGTTCTGCACGTAGAAGCAAAAGGC has a fraction ligated of 0.801.
Variant GAGACCGCAACTGAAAAGTTGTTATCTCTTGTCGTAAGACACTTTGTATGGGTTGAAGTTCTGCACGTAGAAGCAAAAGGC has a fraction ligated of 0.0847.
GAGACCGCAACTGAAAAGTTGTTATCTCTTGTCGTAAGACACTTTGCATGGGTTGAAGTTCTGCACGTAGAAGCAAAAGGC gave a fraction ligated of 0.0127.
Variant GAGACCGCAACTGAAAAGTTGTTATCTCTTGTCGTAAGACACCTTGGATGGGTTGAAGTTCTGCACGTAGAAGCAAAAGGC has a fraction ligated of 0.761.
For GAGACCGCAACTGAAAAGTTGTTATCTCTTGTCGTAAGACACGTTGGATGGGTTGAAGTTCTGCACGTAGAAGCAAAAGGC, the fraction ligated was 0.784.
GAGACCGCAACTGAAAAGTTGTTATCTCTTGTCGTAAGACACATTGGATGGGTTGAAGTTCTGCACGTAGAAGCAAAAGGC was tested, and the fraction ligated was 0.799.
Work on GAGACCGCAACTGAAAAGTTGTTATCTCTTGTGGTAAGACACTTTGGATGGGTTGAAGTTCTGCACGTAGAAGCAAAAGGC yielded a fraction ligated of 0.838.
With GAGACCGCAACTGAAAAGTTGTTATCTCTTGTAGTAAGACACTTTGGATGGGTTGAAGTTCTGCACGTAGAAGCAAAAGGC the fraction ligated was 0.84.
Variant GAGACCGCAACTGAAAAGTTGTTATCTCTTGTTGTAAGACACTTTGGATGGGTTGAAGTTCTGCACGTAGAAGCAAAAGGC has a fraction ligated of 0.867.
GAGACCGCAACTGAAAAGTTGTTATCTCTTGTCGGAAGACACTTTGGATGGGTTGAAGTTCTGCACGTAGAAGCAAAAGGC gave a fraction ligated of 0.804.
With GAGACCGCAACTGAAAAGTTGTTATCTCTTGTCGCAAGACACTTTGGATGGGTTGAAGTTCTGCACGTAGAAGCAAAAGGC the fraction ligated was 0.811.
GAGACCGCAACTGAAAAGTTGTTATCTCTTGTCGAAAGACACTTTGGATGGGTTGAAGTTCTGCACGTAGAAGCAAAAGGC showed a fraction ligated of 0.804.
With GAGACCGCAACTGAAAAGTTGTTATCTCTTGTCGTAAGCCACTTTGGATGGGTTGAAGTTCTGCACGTAGAAGCAAAAGGC the fraction ligated was 0.782.
In the case of GAGACCGCAACTGAAAAGTTGTTATCTCTTGTCGTAAGGCACTTTGGATGGGTTGAAGTTCTGCACGTAGAAGCAAAAGGC, the fraction ligated is reported as 0.84.
GAGACCGCAACTGAAAAGTTGTTATCTCTTGTCGTAAGTCACTTTGGATGGGTTGAAGTTCTGCACGTAGAAGCAAAAGGC was tested, and the fraction ligated was 0.783.
Variant GAGACCGCAACTGAAAAGTTGTTATCTCTTGTCGTAAGACGCTTTGGATGGGTTGAAGTTCTGCACGTAGAAGCAAAAGGC has a fraction ligated of 0.776.
Work on GAGACCGCAACTGAAAAGTTGTTATCTCTTGTCGTAAGACTCTTTGGATGGGTTGAAGTTCTGCACGTAGAAGCAAAAGGC yielded a fraction ligated of 0.779.
GAGACCGCAACTGAAAAGTTGTTATCTCTTGTCGTAAGACCCTTTGGATGGGTTGAAGTTCTGCACGTAGAAGCAAAAGGC showed a fraction ligated of 0.766.
For GAGACCGCAACTGAAAAGTTGTTATCTCTTGTCGTAAGACACTTTGGATTGGTTGAAGTTCTGCACGTAGAAGCAAAAGGC, the fraction ligated was 0.616.
GAGACCGCAACTGAAAAGTTGTTATCTCTTGTCGTAAGACACTTTGGATAGGTTGAAGTTCTGCACGTAGAAGCAAAAGGC was tested, and the fraction ligated was 0.412.
In the case of GAGACCGCAACTGAAAAGTTGTTATCTCTTGTCGTAAGACACTTTGGATCGGTTGAAGTTCTGCACGTAGAAGCAAAAGGC, the fraction ligated is reported as 0.238.
Work on GAGACCGCAACTGAAAAGTTGTTATCTCTTGTCGTAAGACAGTTTGGATGGGTTGAAGTTCTGCACGTAGAAGCAAAAGGC yielded a fraction ligated of 0.819.
